In patent US20080026982A1:

How the values were obtained:
Test in all cases: cell-based or functional assay
[1] = molecular target: APOBEC3G mutant D128K, C-terminal myc-tagged (human)
[2] = molecular target: APOBEC3G mutant P129A, C-terminal myc-tagged (human) (UniProt Q9HC16)
[3] = molecular target: APOBEC3G mutant P129D, C-terminal myc-tagged, expressed from pAPO3G-P129D (human) (UniProt Q9HC16)
[4] = molecular target: APOBEC3G mutant P129F, C-terminal myc-tagged (human) (UniProt Q9HC16)

Row | Substance | Inhibition HIV-2 (%) (viral inhibition, HDV-EGFP single-cycle infectivity in the presence of Vif) [1] | Inhibition HIV-2 (%) (viral inhibition, HDV-EGFP single-cycle infectivity in the presence of Vif) [2] | GFP-positive cells (relative to wild type APOBEC3G with pcHelp set to 100%) [3] [%] | Inhibition HIV-2 (%) (viral inhibition, HDV-EGFP single-cycle infectivity in the presence of Vif) [3] | Inhibition HIV-2 (%) (viral inhibition, HDV-EGFP single-cycle infectivity in the presence of Vif) [4] | Inhibition HIV-1 (%) (viral inhibition, HDV-EGFP single-cycle infectivity in the presence of Vif) [1] | Inhibition HIV-1 (%) (viral inhibition, HDV-EGFP single-cycle infectivity in the presence of Vif) [2] | Inhibition HIV-1 (%) (viral inhibition, HDV-EGFP single-cycle infectivity in the presence of Vif) [3] | Inhibition HIV-1 (%) (viral inhibition, HDV-EGFP single-cycle infectivity in the presence of Vif) [4]
1 | HIV-2 Vif (HIV-2Rod) | 42 | 77 | < 10 | 95 | 81 | – | – | – | –
2 | HIV-1 Vif (virion infectivity factor), expressed from pC-Help | – | – | < 10 | – | – | 83 | 68 | 94 | 79
